From the supplement of paper PMC10567573

B1: RIPK4 (parent)
chain: AAWQGHLPIVKLLAKQPGVSVNAQ

Variants of: B1
Assay: protein stability index of a GFP-peptide fusion (GPS, HEK-293T) (PSI 1-6); higher = more stable
Conditions: c terminus: a fixed tail appended
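Further: lentivirally expressed fusions sorted by FACS into six bins by GFP to DsRed ratio, PSI derived from sequencing read proportions per bin multiplied by bin number.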

Q: With A1K as the variant, how does the protein stability index read?
A: 2.25

Q: For A1S, which protein stability index is on record?
A: 2.56

Q: With A1T as the variant, how does the protein stability index read?
A: 2.22

Q: With A1P as the variant, how does the protein stability index read?
A: 2.81

Q: Which protein stability index does the source give for A1E here?
A: 2.24

Q: Which protein stability index does the source give for A1N here?
A: 2.35

Q: With A1D as the variant, how does the protein stability index read?
A: 3.41

Q: Which protein stability index does the source give for A1L here?
A: 1.05

Q: With A1M as the variant, how does the protein stability index read?
A: 1.98

Q: Which protein stability index does the source give for A1I here?
A: 1.95

Q: With A2E as the variant, how does the protein stability index read?
A: 2.69

Q: Which protein stability index does the source give for A2D here?
A: 3.76

Q: With A2Q as the variant, how does the protein stability index read?
A: 2.62

Q: For A2K, which protein stability index is on record?
A: 2.37

Q: For A2C, which protein stability index is on record?
A: 2.19

Q: Which protein stability index does the source give for A2G here?
A: 2.27

Q: For A2L, which protein stability index is on record?
A: 2.38

Q: Which protein stability index does the source give for A2T here?
A: 3.11

Q: For A2Y, which protein stability index is on record?
A: 2.12

Q: With A2F as the variant, how does the protein stability index read?
A: 2.15

Q: For A2M, which protein stability index is on record?
A: 2.73

Q: Which protein stability index does the source give for A2H here?
A: 2.8

Q: With A2R as the variant, how does the protein stability index read?
A: 2.72

Q: With A2N as the variant, how does the protein stability index read?
A: 3.16

Q: For A2S, which protein stability index is on record?
A: 2.25

Q: For A2I, which protein stability index is on record?
A: 1.66

Q: Which protein stability index does the source give for A2P here?
A: 3.69

Q: With V10C as the variant, how does the protein stability index read?
A: 2.38

Q: For V10Q, which protein stability index is on record?
A: 2.56

Q: For V10F, which protein stability index is on record?
A: 2.16

Q: Which protein stability index does the source give for V10A here?
A: 2.33

Q: For V10Y, which protein stability index is on record?
A: 3.72

Q: With V10H as the variant, how does the protein stability index read?
A: 2.34

Q: With V10N as the variant, how does the protein stability index read?
A: 2.1

Q: Which protein stability index does the source give for V10S here?
A: 2.72

Q: With V10K as the variant, how does the protein stability index read?
A: 2.23

Q: For V10L, which protein stability index is on record?
A: 1.61

Q: For V10R, which protein stability index is on record?
A: 2.37

Q: For V10G, which protein stability index is on record?
A: 2.36

Q: Which protein stability index does the source give for V10W here?
A: 3.69

Q: Which protein stability index does the source give for V10P here?
A: 2.75

Q: With V10I as the variant, how does the protein stability index read?
A: 1.92

Q: Which protein stability index does the source give for V10E here?
A: 3.71

Q: With V10T as the variant, how does the protein stability index read?
A: 2.78

Q: For V10D, which protein stability index is on record?
A: 2.74

Q: For V10M, which protein stability index is on record?
A: 2.64

Q: With V19P as the variant, how does the protein stability index read?
A: 3.08

Q: For V19M, which protein stability index is on record?
A: 2.3

Q: Which protein stability index does the source give for V19T here?
A: 2.46

Q: Which protein stability index does the source give for V19D here?
A: 3.35

Q: Which protein stability index does the source give for V19C here?
A: 2.66

Q: For V19K, which protein stability index is on record?
A: 2.73

Q: Which protein stability index does the source give for V19Y here?
A: 1.75

Q: With V19R as the variant, how does the protein stability index read?
A: 3.3

Q: With V19G as the variant, how does the protein stability index read?
A: 1.85

Q: Which protein stability index does the source give for V19F here?
A: 1.7

Q: For V19S, which protein stability index is on record?
A: 3.22

Q: With V19W as the variant, how does the protein stability index read?
A: 1.61

Q: With V19L as the variant, how does the protein stability index read?
A: 2.04

Q: Which protein stability index does the source give for V19H here?
A: 2.65

Q: With V19N as the variant, how does the protein stability index read?
A: 2.61

Q: With A14Y as the variant, how does the protein stability index read?
A: 2.09

Q: For A14Q, which protein stability index is on record?
A: 2.14

Q: For A14G, which protein stability index is on record?
A: 2.72

Q: Which protein stability index does the source give for A14D here?
A: 3.75

Q: With A14S as the variant, how does the protein stability index read?
A: 2.72

Q: With A14W as the variant, how does the protein stability index read?
A: 1.33

Q: For A14E, which protein stability index is on record?
A: 2.56

Q: Which protein stability index does the source give for A14I here?
A: 1.67

Q: With A14H as the variant, how does the protein stability index read?
A: 2.13

Q: With A14V as the variant, how does the protein stability index read?
A: 1.87

Q: With A14N as the variant, how does the protein stability index read?
A: 3.07

Q: Which protein stability index does the source give for A14M here?
A: 2.07

Q: For A14R, which protein stability index is on record?
A: 2.5

Q: For A14P, which protein stability index is on record?
A: 3.28

Q: With A14C as the variant, how does the protein stability index read?
A: 1.33

Q: For A14T, which protein stability index is on record?
A: 2.42

Q: With A14F as the variant, how does the protein stability index read?
A: 1.57

Q: With A14K as the variant, how does the protein stability index read?
A: 3.17

Q: For W3V, which protein stability index is on record?
A: 2.49

Q: With W3T as the variant, how does the protein stability index read?
A: 3.56

Q: Which protein stability index does the source give for W3G here?
A: 2.91

Q: With W3R as the variant, how does the protein stability index read?
A: 2.98

Q: With W3D as the variant, how does the protein stability index read?
A: 3.85

Q: With W3N as the variant, how does the protein stability index read?
A: 3.29

Q: With W3K as the variant, how does the protein stability index read?
A: 3.21

Q: For W3P, which protein stability index is on record?
A: 3.82

Q: With W3S as the variant, how does the protein stability index read?
A: 3.65

Q: For W3E, which protein stability index is on record?
A: 3.63

Q: For W3F, which protein stability index is on record?
A: 2.97

Q: Which protein stability index does the source give for W3L here?
A: 2.42

Q: For W3M, which protein stability index is on record?
A: 3.88

Q: For W3C, which protein stability index is on record?
A: 3.78

Q: Which protein stability index does the source give for W3A here?
A: 3.2

Q: For W3Y, which protein stability index is on record?
A: 2.42

Q: For W3Q, which protein stability index is on record?
A: 3.5

Q: Which protein stability index does the source give for W3H here?
A: 3.06

Q: With W3I as the variant, how does the protein stability index read?
A: 3.07

Q: Which protein stability index does the source give for L12F here?
A: 2.45

Q: For L12E, which protein stability index is on record?
A: 4.1

Q: With L12G as the variant, how does the protein stability index read?
A: 3.67

Q: For L12H, which protein stability index is on record?
A: 3.33

Q: Which protein stability index does the source give for L12S here?
A: 3.75

Q: Which protein stability index does the source give for L12N here?
A: 3.59

Q: For L12T, which protein stability index is on record?
A: 3.25

Q: Which protein stability index does the source give for L12V here?
A: 2.35

Q: For L12A, which protein stability index is on record?
A: 3.04

Q: With L12I as the variant, how does the protein stability index read?
A: 2.4

Q: With L12M as the variant, how does the protein stability index read?
A: 1.88

Q: For L12P, which protein stability index is on record?
A: 2.71

Q: For L12D, which protein stability index is on record?
A: 4.08

Q: With L12C as the variant, how does the protein stability index read?
A: 2.75

Q: Which protein stability index does the source give for L12W here?
A: 1.33

Q: For L12Y, which protein stability index is on record?
A: 3.14

Q: Which protein stability index does the source give for L12R here?
A: 3.56

Q: For L12Q, which protein stability index is on record?
A: 3.02

Q: With P17M as the variant, how does the protein stability index read?
A: 2.5

Q: Which protein stability index does the source give for P17F here?
A: 1.53

Q: With P17A as the variant, how does the protein stability index read?
A: 1.51

Q: For P17Y, which protein stability index is on record?
A: 3.38

Q: With P17C as the variant, how does the protein stability index read?
A: 1.92

Q: With P17S as the variant, how does the protein stability index read?
A: 2.46

Q: Which protein stability index does the source give for P17W here?
A: 2.91

Q: With P17G as the variant, how does the protein stability index read?
A: 2.22

Q: With P17N as the variant, how does the protein stability index read?
A: 2.54

Q: Which protein stability index does the source give for P17D here?
A: 2.15

Q: Which protein stability index does the source give for P17K here?
A: 2.45

Q: For P17H, which protein stability index is on record?
A: 1.82

Q: With P17Q as the variant, how does the protein stability index read?
A: 2.37

Q: With P17L as the variant, how does the protein stability index read?
A: 2.58

Q: For P17T, which protein stability index is on record?
A: 1.83

Q: For P17E, which protein stability index is on record?
A: 3.58

Q: With L13V as the variant, how does the protein stability index read?
A: 2.88

Q: For L13Y, which protein stability index is on record?
A: 2.94

Q: For L13S, which protein stability index is on record?
A: 2.85

Q: Which protein stability index does the source give for L13Q here?
A: 4.64

Q: For L13N, which protein stability index is on record?
A: 3.81

Q: With L13P as the variant, how does the protein stability index read?
A: 3.55

Q: Which protein stability index does the source give for L13C here?
A: 2.86

Q: With L13F as the variant, how does the protein stability index read?
A: 2.39

Q: For L13W, which protein stability index is on record?
A: 3.24

Q: With L13T as the variant, how does the protein stability index read?
A: 2.16

Q: With L13R as the variant, how does the protein stability index read?
A: 3.09

Q: For L13I, which protein stability index is on record?
A: 2.82

Q: With L13H as the variant, how does the protein stability index read?
A: 2.5

Q: With L13D as the variant, how does the protein stability index read?
A: 3.82

Q: For L13E, which protein stability index is on record?
A: 4.25

Q: Which protein stability index does the source give for L13K here?
A: 2.86

Q: Which protein stability index does the source give for L13A here?
A: 2.9

Q: Which protein stability index does the source give for G5L here?
A: 1.52

Q: With G5H as the variant, how does the protein stability index read?
A: 1.86

Q: Which protein stability index does the source give for G5K here?
A: 1.97

Q: For G5S, which protein stability index is on record?
A: 2.2

Q: With G5D as the variant, how does the protein stability index read?
A: 2.94

Q: With G5W as the variant, how does the protein stability index read?
A: 1.71

Q: Which protein stability index does the source give for G5Y here?
A: 2.89

Q: With G5P as the variant, how does the protein stability index read?
A: 2.56

Q: Which protein stability index does the source give for G5V here?
A: 2.58

Q: With G5Q as the variant, how does the protein stability index read?
A: 2.44

Q: For G5E, which protein stability index is on record?
A: 2.83

Q: For G5T, which protein stability index is on record?
A: 2.69

Q: Which protein stability index does the source give for G5C here?
A: 2.69

Q: Which protein stability index does the source give for G5R here?
A: 2.36

Q: With G5A as the variant, how does the protein stability index read?
A: 2.02

Q: With G5M as the variant, how does the protein stability index read?
A: 2.37

Q: With G5N as the variant, how does the protein stability index read?
A: 3.7

Q: For G5I, which protein stability index is on record?
A: 1.81
